Assays:
[1] = test system: c-Met tyrosine residue 1349; test: Agonist test: c-Met phosphorylation in A549 cells; assay type: cell-based, human; conditions: Antibody 20 μg/ml; activation by HGF (200 ng/ml) set as 100%
Description: The binding of HGF to c-Met activates both tyrosine phosphorylation of the c-Met molecule and the c-Met signaling pathway. Therefore, the activation of c-Met by HGF was used as a positive control of the agonist experiment, and human lung cancer cell line […] was used to evaluate the induced phophorylation of c-Met tyrosine residue 1349.
A549 cells were suspended in solution containing Ham's F12K, 2 mM glutamine (Invitrogen, #21127-022), and 10% (v/v) FBS (GIBCO, #10099141). 0.2 mL of cell suspension was taken and added to a 96-well plate (Corning, #3599), and the cell concentration was 60000 cells/well. The plate was incubated for 24 hours under 5% CO2 at 37° C. After 24 hours, the media in the 96-well plate was discarded, and 100 μl low serum medium (Ham's F12K+2 mM glutamine+0.5% FBS) was added. The cells were starved for 6 hours under 5% CO2 at 37° C. Antibodies were diluted using the above low serum medium to a final concentration of 20 μg/ml. The HGF concentration in the positive control was 200 ng/ml. The plate was incubated for 15 minutes at 37° C. […] After cell lysis, c-Met tyrosine phosphorylation was detected by ELISA. […] Data was read by a […] microplate reader (Supplier: Moleculer Devices; Model: MNR0643; Equip ID: TMRP001). […]

[2] = test system: Caki-1 cells; test: Agonist test: stimulation of Caki-1 cell proliferation; assay type: cell-based, human; conditions: highest concentration 20 μg/ml, 5 days
Description: Caki-1 cells express the hepatocyte growth factor receptor c-Met, and HGF can bind c-Met to stimulate Caki-1 cell proliferation. Therefore, agonist activity of anti c-Met antibodies could be evaluated by the proliferation of Caki-1 cells stimulated by the humanized anti c-Met antibodies of the invention compared with the proliferation of Caki-1 cells stimulated by HGF.
Caki-1 cells (Shanghai Branch of Chinese Academy of Science, TCHu135, P12) were added to a 96-well culture plate (costar, #3799) at 1000/well. The medium was McCoy's 5A (invitrogen, #16600)+10% FBS (GIBCO-10099141), and the condition was at 37° C. for 24 hours. Afterwards, cells were starved for 24 hours (The medium for cell starvation is McCoy's 5A and 0.5% FBS).

[3] = target: T1, cell line MKN45, which overexpresses c-Met (Homo sapiens, UniProt P08581); test: FACS binding activity with MKN45 cells; conditions: Table 6
T1 construct: host or cells: MKN45
T1 sequence (P08581 25-1390): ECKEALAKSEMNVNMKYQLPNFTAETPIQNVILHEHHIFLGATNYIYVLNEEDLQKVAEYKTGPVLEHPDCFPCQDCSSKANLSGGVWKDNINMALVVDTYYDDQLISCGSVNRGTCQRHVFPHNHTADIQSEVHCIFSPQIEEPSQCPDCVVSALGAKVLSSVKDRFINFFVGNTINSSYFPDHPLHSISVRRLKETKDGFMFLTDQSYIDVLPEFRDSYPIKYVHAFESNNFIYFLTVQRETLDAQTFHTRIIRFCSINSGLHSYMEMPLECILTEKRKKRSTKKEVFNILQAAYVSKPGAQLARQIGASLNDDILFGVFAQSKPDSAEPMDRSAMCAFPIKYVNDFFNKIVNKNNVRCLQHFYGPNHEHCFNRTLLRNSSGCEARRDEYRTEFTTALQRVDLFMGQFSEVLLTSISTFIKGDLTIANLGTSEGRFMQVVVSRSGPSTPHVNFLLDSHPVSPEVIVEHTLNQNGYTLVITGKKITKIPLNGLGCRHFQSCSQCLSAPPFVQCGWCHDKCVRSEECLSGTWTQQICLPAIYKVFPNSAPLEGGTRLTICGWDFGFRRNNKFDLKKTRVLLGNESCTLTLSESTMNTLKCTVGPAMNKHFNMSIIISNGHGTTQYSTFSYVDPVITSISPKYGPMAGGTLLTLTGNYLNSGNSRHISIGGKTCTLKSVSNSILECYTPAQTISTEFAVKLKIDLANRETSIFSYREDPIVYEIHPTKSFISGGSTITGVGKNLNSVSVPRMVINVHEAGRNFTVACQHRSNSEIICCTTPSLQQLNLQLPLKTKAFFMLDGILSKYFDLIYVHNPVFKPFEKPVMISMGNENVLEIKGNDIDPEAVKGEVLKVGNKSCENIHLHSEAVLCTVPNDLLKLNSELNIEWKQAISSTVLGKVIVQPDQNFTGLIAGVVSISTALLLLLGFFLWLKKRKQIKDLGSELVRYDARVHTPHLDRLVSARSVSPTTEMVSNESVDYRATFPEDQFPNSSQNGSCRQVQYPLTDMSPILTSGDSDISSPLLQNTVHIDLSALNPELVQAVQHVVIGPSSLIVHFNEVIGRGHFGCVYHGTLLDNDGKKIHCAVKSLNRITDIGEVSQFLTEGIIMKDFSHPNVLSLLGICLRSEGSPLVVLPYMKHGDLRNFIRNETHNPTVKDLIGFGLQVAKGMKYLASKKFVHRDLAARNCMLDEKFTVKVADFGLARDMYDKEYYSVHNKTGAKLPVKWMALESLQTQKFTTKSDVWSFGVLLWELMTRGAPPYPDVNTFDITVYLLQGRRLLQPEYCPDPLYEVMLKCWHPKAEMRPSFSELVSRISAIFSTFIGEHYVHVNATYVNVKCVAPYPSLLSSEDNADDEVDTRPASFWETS
Description: A FACS method was used to detect the binding activity of c-Met humanized antibodies with the cell line MKN45, which overexpresses c-Met. […] The plate was incubated for 1 hour at 4° C. FACS buffer (PBS comprising 2.5% (v/v) FBS (Hyclone, Cat: SH30256.01B)) was added. The plate was centrifuged under 4° C. at 1300 rmp for 4 minutes, and the supernatant was discarded. This procedure was repeated three times. 100 μl of secondary antibodies (Fluorescence labeled goat-anti-mouse secondary antibodies with 1:200 dilution, Biolegend, Cat No. 405307; Fluorescence labeled anti-human secondary antibody with 1:30 dilution, Biolegend, Cat No. 409304) were added to each well, and the plate was incubated for 1 hour at 4° C. FACS buffer was added, the plate was centrifuged under 4° C. at 1300 rpm for 4 minutes, the supernatants were discarded; and this procedure was repeated three times. 200 μl FACS buffer was added to resuspend the cells, and the samples were prepared and detected by flow cytometry (BD FACS Array).

[4] = test system: MKN45 cells; test: Inhibition of proliferation of MKN45 gastric cancer cells (CellTiter-Glo, 5 days); assay type: cell-based, human
Excerpt: The clones above were selected and further cultured to obtain monoclones. After verification of binding activity by ELISA, monoclones were selected for cultivation, and the resulting supernatant was subjected to a cell viability assay. According to the experiment principle, anti-human c-Met antibodies of the invention are able to inhibit phosphorylation of c-Met expressed on the surface of human gastric cancer cell line MKN45, thereby inhibiting the proliferation of MNK45 cells.
Human gastric cancer cells (MKN45, JCRB, JCRB0254, P11) were added to a 96-well cell culture plate (costar, #3799) at 1×10^5 cells/mL and 50 μl/well. The medium was RPMI1640 medium: (GIBCO, cat #11835)+10% FBS (GIBCO-10099141). Anti-human c-Met antibodies to be tested were added at 50 μl/well, and the plate was cultured for 5 days in incubator at 37′C (Manufacture: SANYO; Equipment No. TINC035). CellTiter-Glo® Luminescent Cell Viability Assay (Promega, G7573) was used, and the proliferation of cells was detected according to the instructions. The plate was read by a PerkinElmer plate reader, TREA001-RDA-IBA100. The following formula was used to calculate the percentage proliferation of cells: % proliferation of cells=(1−cell reads in experimental group/cell reads in untreated group)×100%.

B1: Ab-9: humanized anti c-Met antibody: heavy chain sequence of SEQ ID NO: 23 and light chain sequence of SEQ ID NO: 26 (antibody)
heavy: QVTLKESGPVLVKPTETLTLTCTVSGFSLPNYGVHWVRQPPGKALEWLAVIWSGGSTNYAAAFVSRLRISKDTSKSQVVFTMNNMDPVDTATYYCARNHDNPYNYAMDYWGQGTTVTVSSASTKGPSVFPLAPCSRSTSESTAALGCLVKDYFPEPVTVSWNSGALTSGVHTFPAVLQSSGLYSLSSVVTVPSSNFGTQTYTCNVDHKPSNTKVDKTVERKCCVECPPCPAPPVAGPSVFLFPPKPKDTLMISRTPEVTCVVVDVSHEDPEVQFNWYVDGVEVHNAKTKPREEQFNSTFRVVSVLTVVHQDWLNGKEYKCKVSNKGLPAPIEKTISKTKGQPREPQVYTLPPSREEMTKNQVSLTCLVKGFYPSDIAVEWESNGQPENNYKTTPPMLDSDGSFFLYSKLTVDKSRWQQGNVFSCSVMHEALHNHYTQKSLSLSPGK
light: DIVLTQSPASLAVSPGQRATITCRANKSVSTSTYNYLHWYQQKPGQPPKLLIYLASNLASGVPARFSGSGSGTDFTLTINPVEANDTANYYCQHSRDLPPTFGQGTKLEIKRTVAAPSVFIFPPSDEQLKSGTASVVCLLNNFYPREAKVQWKVDNALQSGNSQESVTEQDSKDSTYSLSSTLTLSKADYEKHKVYACEVTHQGLSSPVTKSFNRGEC
modifications: Ab-9 heavy chain; Ab-9 light chain
B1 was tested, and the “Activation of c-Met phosphorylation (%)” value [1] was 29.9%, the “Stimulation of proliferation of Caki-1” value [2] was “none” and the EC50 [3] was 1.6 nM. The “Activity of inhibition of MKN45 cell proliferation Maximum inhibition rate (%)” value [4] was 33%.
